In article PMC7730851, “Expression of Somatostatin Receptor Subtypes (SSTR-1–SSTR-5) in Pediatric Hematological and Oncological Disorders” (Molecules, 2020):

Test system: somatostatin receptors (SSTR)
Assay: Displacement of [125I]RC-160 binding from membranes of human pediatric tumors by unlabeled peptides
Experimental: Receptor binding affinities and concentrations of SSTRs in tumor membranes were also studied. […] Biochemical specifications and parameters crucial to characterize specific binding sites were also defined. […] Various peptides structurally related or unrelated to SST were used in these studies.
Displacement of [^125I] RC-160 as a radioligand by the unlabeled SST analogs as competitor was determined.
The radioiodinated derivatives of the RC-160 SST analogue were prepared by the chloramine-T method and purified by reverse phase high-performance liquid chromatography (RP-HPLC) as described previously. Somatostatin receptor-binding assays were performed as described previously with some minor modifications, using in vitro ligand competition assays based on the binding of [^125I] RC-160 as a radioligand to membrane fractions of the pediatric samples. This radioiodinated ligand has been well characterized and reported previously and has high affinity for SSTR-2 and SSTR-5 [4]. […] After incubation for 2 h, the binding reactions were stopped, and the bound ligand was separated and counted in a gamma counter. […] The final binding affinities were expressed as IC50 values. Protein concentration was determined by the method of Bradford using a Bio-Rad protein assay kit (Bio-Rad Laboratories, Inc.).

displacement of [125I]RC-160 binding (membrane fractions of human rhabdomyosarcoma specimen, Figure 3): did not displace | inhibition/displacement of the binding of radioiodinated RC-160 (pediatric tumor membranes, competitor 10^-12-10^-6 M, concentrations as high as 1 µM): none
B1: epidermal growth factor (EGF): unrelated peptide used as specificity control (protein, UniProt P01133 23-1207, looked up)
Pro-epidermal growth factor: PQHWSCPEGTLAGNGNSTCVGPAPFLIFSHGNSIFRIDTEGTNYEQLVVDAGVSVIMDFHYNEKRIYWVDLERQLLQRVFLNGSRQERVCNIEKNVSGMAINWINEEVIWSNQQEGIITVTDMKGNNSHILLSALKYPANVAVDPVERFIFWSSEVAGSLYRADLDGVGVKALLETSEKITAVSLDVLDKRLFWIQYNREGSNSLICSCDYDGGSVHISKHPTQHNLFAMSLFGDRIFYSTWKMKTIWIANKHTGKDMVRINLHSSFVPLGELKVVHPLAQPKAEDDTWEPEQKLCKLRKGNCSSTVCGQDLQSHLCMCAEGYALSRDRKYCEDVNECAFWNHGCTLGCKNTPGSYYCTCPVGFVLLPDGKRCHQLVSCPRNVSECSHDCVLTSEGPLCFCPEGSVLERDGKTCSGCSSPDNGGCSQLCVPLSPVSWECDCFPGYDLQLDEKSCAASGPQPFLLFANSQDIRHMHFDGTDYGTLLSQQMGMVYALDHDPVENKIYFAHTALKWIERANMDGSQRERLIEEGVDVPEGLAVDWIGRRFYWTDRGKSLIGRSDLNGKRSKIITKENISQPRGIAVHPMAKRLFWTDTGINPRIESSSLQGLGRLVIASSDLIWPSGITIDFLTDKLYWCDAKQSVIEMANLDGSKRRRLTQNDVGHPFAVAVFEDYVWFSDWAMPSVMRVNKRTGKDRVRLQGSMLKPSSLVVVHPLAKPGADPCLYQNGGCEHICKKRLGTAWCSCREGFMKASDGKTCLALDGHQLLAGGEVDLKNQVTPLDILSKTRVSEDNITESQHMLVAEIMVSDQDDCAPVGCSMYARCISEGEDATCQCLKGFAGDGKLCSDIDECEMGVPVCPPASSKCINTEGGYVCRCSEGYQGDGIHCLDIDECQLGEHSCGENASCTNTEGGYTCMCAGRLSEPGLICPDSTPPPHLREDDHHYSVRNSDSECPLSHDGYCLHDGVCMYIEALDKYACNCVVGYIGERCQYRDLKWWELRHAGHGQQQKVIVVAVCVVVLVMLLLLSLWGAHYYRTQKLLSKNPKNPYEESSRDVRSRRPADTEDGMSSCPQPWFVVIKEHQDLKNGGQPVAGEDGQAADGSMQPTSWRQEPQLCGMGTEQGCWIPVSSDKGSCPQVMERSFHMPSYGTQTLEGGVEKPHSLLSANPLWQQRALDPPHQMELTQ
modifications: Pro-epidermal growth factor
notes: unrelated peptide used as specificity control
